Measurements as given in US20230348630A1 (BEIJING MABWORKS BIOTECH, published 2023).
Where two headings read alike, the source gives them in different places.

T1: BCMA-his protein (Cat #: BCA-H522y, ACRO) (human, UniProt Q02223 1-54)
T1 construct: Bought recombinant protein; the construct is most likely only a soluble part of it; also called BCMA protein; human BCMA
T1 sequence: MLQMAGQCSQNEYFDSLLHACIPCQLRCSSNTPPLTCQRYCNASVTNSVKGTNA

T2: mouse BCMA on HEK293A/mouse BCMA cells (mouse, UniProt O88472 1-185)
T2 sequence: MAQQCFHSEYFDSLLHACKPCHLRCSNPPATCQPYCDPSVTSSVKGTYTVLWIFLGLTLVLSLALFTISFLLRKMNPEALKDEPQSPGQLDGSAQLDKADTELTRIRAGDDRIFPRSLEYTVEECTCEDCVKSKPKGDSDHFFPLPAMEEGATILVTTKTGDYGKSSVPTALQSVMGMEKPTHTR

T3: human BCMA on HEK293A/human BCMA cells (human, UniProt Q02223 1-184)
T3 sequence: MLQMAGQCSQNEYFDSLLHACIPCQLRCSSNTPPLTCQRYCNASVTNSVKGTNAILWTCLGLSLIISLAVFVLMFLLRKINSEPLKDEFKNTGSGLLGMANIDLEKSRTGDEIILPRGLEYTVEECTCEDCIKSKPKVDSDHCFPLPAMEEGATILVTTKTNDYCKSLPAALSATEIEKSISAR


What was measured:
[1] = molecular target: T1, BCMA-his protein (Cat #: BCA-H522y, …); assay: ELISA, coated BCMA protein
Description: Briefly, an ELISA plate was coated with 100 μl 1 μg/ml BCMA protein (Cat #: BCA-H522y, ACRO) in PBS overnight at 4° C. Then, the plate was blocked with 250 μl PBST with 4% skimmed milk at room temperature for 1 h. […] The negative control well was added with PBST instead of the antibody. The plate was washed with PBST for three times, added with 100 μl HRP conjugated goat anti-human IgG (1:7000, Cat #: 31413, thermofisher), and incubated at room temperature for 1 h. The plate was washed again with PBST for four times, added with 100 μl freshly prepared TMB (Cat #: 555214, BD, USA), and left still for color development, which was terminated with 50 μl 10% H₂SO₄. The absorbance was read at 450 nm, and the data was processed and analyzed using GraphPad.
(§1) The purified bispecific antibodies were tested for their binding capability to recombinant human CD3 and human BCMA proteins by ELISA, following the protocols in Example 4 and Example 9.

[2] = molecular target: T1, BCMA-his protein (Cat #: BCA-H522y, …); assay: SPR (BIAcore 8K), protocol of Example 5
Description: (§2) Following the protocols in Example 5 and Example 10, the bispecific antibodies of the disclosure were tested for their binding affinity to CD3D&E and human BCMA.

[3] = molecular target: T4, CD3 on Jurkat cells (UniProt P04234 22-171; P07766 23-207); assay: flow cytometry on Jurkat cells
T4 construct: whole, on cells
T4 sequence (P04234 22-171, chain 1 of 2): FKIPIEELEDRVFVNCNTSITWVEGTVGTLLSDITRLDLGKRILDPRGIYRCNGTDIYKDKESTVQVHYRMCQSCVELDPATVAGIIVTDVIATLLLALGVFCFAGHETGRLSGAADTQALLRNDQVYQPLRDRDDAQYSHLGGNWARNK
T4 sequence (P07766 23-207, chain 2 of 2): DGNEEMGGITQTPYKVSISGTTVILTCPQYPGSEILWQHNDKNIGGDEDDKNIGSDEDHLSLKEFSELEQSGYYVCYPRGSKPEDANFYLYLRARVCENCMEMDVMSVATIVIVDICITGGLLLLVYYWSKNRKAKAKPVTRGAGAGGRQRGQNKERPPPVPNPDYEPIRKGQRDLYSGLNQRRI
Description: (§3) Jurkat cells were collected, centrifuged at 300 g for 5 min, and suspended in PBS. After another centrifugation, the cells were suspended in 2% FBS-PBS at the cell density of 3×10⁶/ml, and […] were plated onto a U-bottom plate. The plate was added with 50 μl serially diluted anti-CD3 antibodies of the disclosure in 2% FBS-PBS (4-fold dilution, starting at 20 μg/ml), and incubated at room temperature for 1 h. The plate was washed with 2% FBS-PBS for three times, added with 50 μl PE-labeled goat-anti-human IgG (H+L) (1: 500), and incubated at room temperature for 45 min. The plate was washed with 2% FBS-PBS again for three times, and added with 150 μl 2% FBS-PBS to suspend the cells. The plate was measured for cell fluorescence using a cytometry, and the data was processed with FlowJo and analyzed with GraphPad.
Following the protocol of Example 11, the bispecific antibodies of the disclosure were tested for their binding capability to Jurkat cells.

[4] = molecular target: T5, CD3D&E protein (Cat #: CT038-H2508H, Sino Biological) (human, UniProt P04234 22-105; P07766 23-126); assay: SPR (BIAcore 8K), protocol of Example 10
T5 construct: Bought complex of the delta and epsilon chains; also called CD3D&E complex; human CD3D&E complex
T5 sequence (P04234 22-105, form in doubt, chain 1 of 2): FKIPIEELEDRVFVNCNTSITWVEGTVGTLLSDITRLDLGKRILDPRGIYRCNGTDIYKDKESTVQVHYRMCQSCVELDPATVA
T5 sequence (P07766 23-126, form in doubt, chain 2 of 2): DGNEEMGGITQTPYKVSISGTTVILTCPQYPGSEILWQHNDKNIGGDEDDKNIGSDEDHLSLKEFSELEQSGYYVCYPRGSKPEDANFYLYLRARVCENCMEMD
Description: as §2

[5] = molecular target: T2, mouse BCMA on HEK293A/mouse BCMA cells; assay: flow cytometry on HEK293A/mouse BCMA cells [continued) E]
Description: (§4) The anti-BCMA antibody's binding capability to cell surface BCMAs was tested by FACS. Briefly, HEK293A/human BCMA cells, HEK293A/monkey BCMA cells and HEK293A/mouse BCMA cells, as generated in Example 1, were collected, digested with trypsin, and subjected to centrifugation at 300 g for 5 min. The cells were suspended in PBS, and subjected to centrifugation again. The cells were re-suspended in PBS with 2% FBS at the cell density at 4×10⁶/ml, and 50 μl cells were seeded onto a U-bottom plate. […] The plate was washed with 2% FBS-PBS for three times, added with 50 μl PE-labeled goat-anti-human IgG (H+L) (1: 500), and incubated at room temperature for 45 min. The plate was washed with 2% FBS-PBS again for three times, and added with 150 μl 2% FBS-PBS to suspend the cells. The plate was measured for cell fluorescence using a cytometry, and the data was processed with FlowJo and analyzed with GraphPad.
(§5) Following the protocol of Example 6, the bispecific antibodies of the disclosure were tested for their binding capability to the HEK293A/human BCMA cells, HEK293A/monkey BCMA cells, and HEK293A/mouse BCMA cells as generated in Example 1.

[6] = molecular target: T5, CD3D&E protein (Cat #: CT038-H2508H, …); assay: ELISA, coated CD3D&E
Description: as §1

[7] = molecular target: T3, human BCMA on HEK293A/human BCMA cells; assay: flow cytometry on HEK293A/human BCMA cells
Description: as §4, §5

[8] = molecular target: monkey BCMA on HEK293A/monkey BCMA cells (monkey, UniProt Q02223 1-184 (human entry)); assay: flow cytometry on HEK293A/monkey BCMA cells
monkey BCMA on HEK293A/monkey BCMA cells, sequence (Q02223 other isoform, or with tags, fused parts or gaps): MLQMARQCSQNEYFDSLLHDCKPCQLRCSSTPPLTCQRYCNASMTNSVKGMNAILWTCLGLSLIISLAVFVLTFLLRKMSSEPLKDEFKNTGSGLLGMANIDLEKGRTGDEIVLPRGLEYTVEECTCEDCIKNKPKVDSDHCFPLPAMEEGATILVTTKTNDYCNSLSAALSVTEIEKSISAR
Description: as §4, §5

[9] = molecular target: T5, CD3D&E protein (Cat #: CT038-H2508H, …); assay: SPR (BIAcore 8K), antibody captured by anti-human Fc, CD3D&E as analyte
Description: Briefly, the mouse anti-human Fc antibodies were coupled to a CM5 biosensor chip. The anti-CD3 antibodies of the disclosure in the HBS-EP buffer (Cat #: BR-1006-69, GE Life Sciences) at the concentration of 1 μg/ml was flowed through the chip, where about 100 RU of the antibodies were captured by the mouse anti-human Fc antibodies. Serially diluted CD3D&E molecules (Cat #: CT038-H2508H, Sino Biological) in the HBS-EP buffer (Cat #: BR-1006-69, GE Life Sciences) (2-fold dilution starting at 20 μg/ml) were respectively flowed through the chip. Chip regeneration was performed with 3 M MgCl₂.

[10] = molecular target: T4, CD3 on Jurkat cells; assay: flow cytometry on Jurkat cells; remark: listed apart in the source
Description: as §3

[11] = molecular target: T5, CD3D&E protein (Cat #: CT038-H2508H, …); assay: ELISA, coated CD3D&E; remark: listed apart in the source

| Binder | EC50 [1] | Kd [2] | EC50 [3] | EC50 (read off the curve) [3] | Kd [4] | binding result [5] | EC50 [6] | EC50 [7] | EC50 [8] | Kd [9] | EC50 [10] | EC50 [11] |
| --- | --- | --- | --- | --- | --- | --- | --- | --- | --- | --- | --- | --- |
| anti-CD3/BCMA bispecific antibody MBS305-H1-KIH (bispecific antibody, human IgG1, kappa, L234A L235A, N297A) heavy 1: QVQLVQSGAEVKKPGASVKVSCKASGYTFTNHIIHWVRQAPGQGLEWMGYINPYPGYHGYNDKFSGRATMTSDTSTSTVYMELSSLRSEDTAVYYCARDGYYRDQDVLDYWGQGTLVTVSSASTKGPSVFPLAPSSKSTSGGTAALGCLVKDYFPEPVTVSWNSGALTSGVHTFPAVLQSSGLYSLSSVVTVPSSSLGTQTYICNVNHKPSNTKVDKKVEPKSCDKTHTCPPCPAPEAAGGPSVFLFPPKPKDTLMISRTPEVTCVVVDVSHEDPEVKFNWYVDGVEVHNAKTKPREEQYASTYRVVSVLTVLHQDWLNGKEYKCKVSNKALPAPIEKTISKAKGQPREPQVYTLPPSREEMTKNQVSLSCAVKGFYPSDIAVEWESNGQPENNYKTTPPVLDSDGSFFLVSKLTVDKSRWQQGNVFSCSVMHEALHNHYTQKSLSLSPGK light 1: not shown heavy 2: QVQLVQSGAEVKKPGASVKVSCKASGYTFTNHIIHWVRQAPGQGLEWMGYINPYPGYHGYNDKFSGRATMTSDTSTSTVYMELSSLRSEDTAVYYCARDGYYRDQDVLDYWGQGTLVTVSSGGGGSGGGGSGGGGSGGGGSDIQMTQSPSSLSASVGDRVTITCKASQDISQYLNWYQQKPGKAPKLLIYYTSGLHPGVPSRFSGSGSGTDFTFTISSLEPEDEATYYCQQGYALPWTFGQGTKLTAKRGGGGSGGGGSGGGGSEVQLVESGGGLVQPGRSLRLSCAASGFTFSDYTMHWVRQAPGKGLEWVSGISWNTGTIGYADSVKGRFTISRDNAKKSLYLQMNSLRAEDTALYYCAKDNSGYGHYYFGMDVWGQGTTVTVASASTKGPSVFPLAPSSKSTSGGTAALGCLVKDYFPEPVTVSWNSGALTSGVHTFPAVLQSSGLYSLSSVVTVPSSSLGTQTYICNVNHKPSNTKVDKKVEPKSCDKTHTCPPCPAPEAAGGPSVFLFPPKPKDTLMISRTPEVTCVVVDVSHEDPEVKFNWYVDGVEVHNAKTKPREEQYASTYRVVSVLTVLHQDWLNGKEYKCKVSNKALPAPIEKTISKAKGQPREPQVYTLPPSREEMTKNQVSLWCLVKGFYPSDIAVEWESNGQPENNYKTTPPVLDSDGSFFLYSKLTVDKSRWQQGNVFSCSVMHEALHNHYTQKSLSLSPGK light 2: not shown | 0.0117 µg/mL | 0.168 nM | 0.00173 µg/mL | ~2 µg/mL | 8.09 nM | no binding (tested: about 30000 ng/ml (LOG10 about 4.5)) | 0.0468 µg/mL | 0.221 µg/mL | 0.337 µg/mL | – | – | – |
| anti-CD3/BCMA bispecific antibody MBS305-H2-KIH (bispecific antibody, human IgG1, kappa, L234A L235A, N297A) heavy 1: QVQLVQSGAEVKKPGASVKVSCKASGYTFTNHIIHWVRQAPGQGLEWMGYINPYPGYHGYNDKFSGRATMTSDTSTSTVYMELSSLRSEDTAVYYCARDGYYRDQDVLDYWGQGTLVTVSSASTKGPSVFPLAPSSKSTSGGTAALGCLVKDYFPEPVTVSWNSGALTSGVHTFPAVLQSSGLYSLSSVVTVPSSSLGTQTYICNVNHKPSNTKVDKKVEPKSCDKTHTCPPCPAPEAAGGPSVFLFPPKPKDTLMISRTPEVTCVVVDVSHEDPEVKFNWYVDGVEVHNAKTKPREEQYASTYRVVSVLTVLHQDWLNGKEYKCKVSNKALPAPIEKTISKAKGQPREPQVYTLPPSREEMTKNQVSLSCAVKGFYPSDIAVEWESNGQPENNYKTTPPVLDSDGSFFLVSKLTVDKSRWQQGNVFSCSVMHEALHNHYTQKSLSLSPGK light 1: not shown heavy 2: QVQLVQSGAEVKKPGASVKVSCKASGYTFTNHIIHWVRQAPGQGLEWMGYINPYPGYHGYNDKFSGRATMTSDTSTSTVYMELSSLRSEDTAVYYCARDGYYRDQDVLDYWGQGTLVTVSSGGGGSGGGGSGGGGSGGGGSDIQMTQSPSSLSASVGDRVTITCKASQDISQYLNWYQQKPGKAPKLLIYYTSGLHPGVPSRFSGSGSGTDFTFTISSLEPEDEATYYCQQGYALPWTFGQGTKLTAKRGGGGSGGGGSGGGGSEVQLVESGGGLVQPGRSLRLSCAASGFTFDDFAMHWVRQAPGKGLEWVSGITWNSGSVGYADSVKGRFTISRDNAKKSLYLQMNSLRAEDTALYYCAKDRSGYGHYYYGMDVWGQGTTVTVASASTKGPSVFPLAPSSKSTSGGTAALGCLVKDYFPEPVTVSWNSGALTSGVHTFPAVLQSSGLYSLSSVVTVPSSSLGTQTYICNVNHKPSNTKVDKKVEPKSCDKTHTCPPCPAPEAAGGPSVFLFPPKPKDTLMISRTPEVTCVVVDVSHEDPEVKFNWYVDGVEVHNAKTKPREEQYASTYRVVSVLTVLHQDWLNGKEYKCKVSNKALPAPIEKTISKAKGQPREPQVYTLPPSREEMTKNQVSLWCLVKGFYPSDIAVEWESNGQPENNYKTTPPVLDSDGSFFLYSKLTVDKSRWQQGNVFSCSVMHEALHNHYTQKSLSLSPGK light 2: not shown | 0.0124 µg/mL | 0.206 nM | 0.00328 µg/mL | – | 256 nM | no binding (tested: about 30000 ng/ml (LOG10 about 4.5)) | 0.141 µg/mL | 0.285 µg/mL | 0.373 µg/mL | – | – | – |
| anti-CD3D&E antibody D8E5, full-length human IgG1 (L234A/L235A/N297A)/kappa (antibody, V domains shown) VH: EVQLVESGGGLVQPGRSLRLSCAASGFTFDSYSMHWVRQAPGKGLEWVSGISWNSGSLGYADSVKGRFTISRDNAKKSLYLQMNSLRAEDTALYYCAKDRSGYGHYYYGMDVWGQGTTVTVAS VL: EIVMTQSPATLSVSPGERATLSCRASRSVSLNVAWYQQKPGQAPRLLIYGASTKYTGIPARFSGSGSGTEFTLTISSLQSEDFAVYYCQQYINWPLTFGGGTKVEIKR | – | – | – | – | – | – | – | – | – | 30 nM | 0.0411 µg/mL | 0.00816 µg/mL |
| anti-CD3D&E antibody 7-1A12, full-length human IgG1 (L234A/L235A/N297A)/kappa (antibody, V domains shown) VH: EVQLVESGGGLVQPGRSLRLSCAASGFTFSDYTMHWVRQAPGKGLEWVSGISWNTGTIGYADSVKGRFTISRDNAKKSLYLQMNSLRAEDTALYYCAKDNSGYGHYYFGMDVWGQGTTVTVAS VL: EIVMTQSPATLSVSPGERATLSCRASQSVSRNVAWYQQKPGQAPRLLIYGASTRQTGIPARFSGSGSGTEFTLTISSLQSEDFAVYYCQSYINWPLQFGGGTKVEIKR | – | – | – | – | – | – | – | – | – | 6.54 nM | 0.119 µg/mL | 0.00402 µg/mL |
